Experimental data as given in US20210388330A1.

Legend:
[1] = target: soluble mannose-6-phosphate receptor (sM6PR); assay: Biacore (SPR) analysis of binding to sM6PR, two KD values fitted
[2] = target: soluble mannose-6-phosphate receptor (sM6PR); assay: Biacore (SPR), dpIDS compared with untreated IDS

Row | Binder | KD1 [1] | KD2 [1] | fold reduction of binding affinity of KD2 against IDS [2]
1 | Recombinant iduronate-2-sulfatase (IDS), produced in human HT-1080 cells (enzyme, mannose-6-phosphate residues on N-linked oligomannose glycans; M6P content 2.56 pmol M6P/pmol protein (Table 3)) SETQANSTTDALNVLLIIVDDLRPSLGCYGDKLVRSPNIDQLASHSLLFQNAFAQQAVCAPSRVSFLTGRRPDTTRLYDFNSYWRVHAGNFSTIPQYFKENGYVTMSVGKVFHPGISSNHTDDSPYSWSFPPYHPSSEKYENTKTCRGPDGELHANLLCPVDVLDVPEGTLPDKQSTEQAIQLLEKMKTSASPFFLAVGYHKPHIPFRYPKEFQKLYPLENITLAPDPEVPDGLPPVAYNPWMDIRQREDVQALNISVPYGPIPVDFQRKIRQSYFASVSYLDTQVGRLLSALDDLQLANSTIIAFTSDHGWALGEHGEWAKYSNFDVATHVPLIFYVPGRTASLPEAGEKLFPYLDPFDSASQLMEPGRQSMDLVELVSLFPTLAGLAGLQVPPRCPVPSFHVELCREGKNLLKHFRFRDLEEDPYLPGNPRELIAYSQYPRPSDIPQWNSDKPSLKDIKIMGYSIRTIDYRYTVWVGFNPDEFLANFSDIHAGELYFVDSDPLQDHNMYNDSQGGDLFQLLMP | 58.2 nM | 0.813 nM | –
2 | CIP-treated dephosphorylated iduronate-2-sulfatase (dpIDS) (enzyme, dephosphorylated with acrylic bead-bound calf intestine alkaline phosphatase; M6P content reduced to 0.15 pmol M6P/pmol protein (Table 3)) SETQANSTTDALNVLLIIVDDLRPSLGCYGDKLVRSPNIDQLASHSLLFQNAFAQQAVCAPSRVSFLTGRRPDTTRLYDFNSYWRVHAGNFSTIPQYFKENGYVTMSVGKVFHPGISSNHTDDSPYSWSFPPYHPSSEKYENTKTCRGPDGELHANLLCPVDVLDVPEGTLPDKQSTEQAIQLLEKMKTSASPFFLAVGYHKPHIPFRYPKEFQKLYPLENITLAPDPEVPDGLPPVAYNPWMDIRQREDVQALNISVPYGPIPVDFQRKIRQSYFASVSYLDTQVGRLLSALDDLQLANSTIIAFTSDHGWALGEHGEWAKYSNFDVATHVPLIFYVPGRTASLPEAGEKLFPYLDPFDSASQLMEPGRQSMDLVELVSLFPTLAGLAGLQVPPRCPVPSFHVELCREGKNLLKHFRFRDLEEDPYLPGNPRELIAYSQYPRPSDIPQWNSDKPSLKDIKIMGYSIRTIDYRYTVWVGFNPDEFLANFSDIHAGELYFVDSDPLQDHNMYNDSQGGDLFQLLMP | 32.1 nM | 5.94 nM | 7 fold
